# Source: patent US20120107244A1 (UNIVERSIT T ULM, published 2012)
# B1: monomeric eqFP611 variant as set forth in SEQ ID No. 1 (mRuby) (other)
# chain: MNSLIKENMRMKVVLEGSVNGHQFKCTGEGEGNPYMGTQTMRIKVIEGGPLPFAFDILATSFMYGSRTFIKYPKGIPDFFKQSFPEGFTWERVTRYEDGGVITVMQDTSLEDGCLVYHAQVRGVNFPSNGAVMQKKTKGWEPNTEMMYPADGGLRGYTHMALKVDGGGHLSCSFVTTYRSKKTVGNIKMPGIHAVDHRLERLEESDNEMFVVQREHAVAKFAGLGGG
# notes: not shown: N-terminal poly-His tag from the pQE-32 vector
# Target: the molecule itself
# Test: gel filtration (Superdex 200); elution volume against monomer, dimer and tetramer standards
protein,measurement,value
B1,binding result,no binding (tested: 4-30 mg/ml (0.16-1.2 mM))
